From patent US20230279079A1 (published 2023)
Numbering of substitutions follows the chain as printed. Like-named read-outs stand apart in the source and are kept apart here.

B1: FD 8B (antibody, V domains shown)
VH: EVQLLESGAEVKKPGASVKVSCKVSGYTLTELSMHWVRQAPGKGLEWMGGFDPEDGETIYAQKFQGRVTMTEDTSTDTAYMELSSLRSEDTAVYYCATAAAINCSSTSCYYYYYYYGMDVWGQGTTVTVSS
VL: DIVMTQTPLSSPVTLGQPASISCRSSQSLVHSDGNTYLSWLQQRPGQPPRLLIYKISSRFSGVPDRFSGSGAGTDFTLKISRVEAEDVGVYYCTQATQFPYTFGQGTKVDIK
B2: FD 11D (antibody, V domains shown)
VH: EVQLVESGGGVVQPGRSLRLSCAASGFTFSSYGMHWVRQAPGKGLEWVAVISYDGSNKYYADSVKGRFTISRDNSKNTLYLQMNSLRAEDTAVYYCAKEGAGSGWYRHHKPGYYFDYWGQGTLVTVSS
VL: not shown
B3: EZ 7A (antibody, V domains shown)
VH: EVQLVESGAEVKKPGESLKISCKGSGYSFTSYWIGWVRQMPGKGLEWMGIIYPGDSDTRYSPSFQGQVTISADKSISTAYLQWSSLKASDTAMYYCARGWVYRGFPYYGMDVWGQGTMVTVSS
VL: QSALTQPRSVSGSPGQSVTISCTGTSSDVGGYNYVSWYQQHPGKAPKLMIYDVSKRPSGVPDRFSGSKSGNTASLTISGLQAEDEADYYCCSYAGSYTLVFGGGTKLTVL
B4: FD 7D (antibody, V domains shown)
VH: EVQLVESGAEVKKPGESLRISCKGSGYSFTSYWISWVRQMPGKGLEWMGRIDPSDSYTNYSPSFQGHVTISADKSISTAYLQWSSLKASDTAMYYCARHSDCSSTSCYFVDAFDIWGQGTMVTVSS
VL: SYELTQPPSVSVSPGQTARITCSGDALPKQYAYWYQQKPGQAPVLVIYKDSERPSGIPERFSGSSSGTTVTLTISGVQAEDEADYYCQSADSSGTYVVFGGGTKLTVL
B5: FG 12C (antibody, V domains shown)
VH: EVQLVESGGGLVQPGRSLRLSCAASGFTFDDYAMHWVRQAPGKGLEWVSGISWNSGSIGYADSVKGRFTISRDNAKNSLYLQMNSLRAEDTALYYCAKDMRVHDYGDYYFDYWGQGTLVTVSS
VL: SYELTQPPSVSVAPGKTARITCGGNNIGSKSVHWYQQKPGQAPVLVIYYDSDRPSGIPERFSGSNSGNTATLTISRVEAGDEADYYCQVWDSSSDHPVFGGGTKLTVL
B6: FN 8C (antibody, V domains shown)
VH: QVQLVESGGGVVQPGRSLRLSCAASGFTFSSYGMHWVRQAPGKGLEWVAVISYDGSNKYYADTVKGRFTISRDNSKNTLYLQMNSLRAEDTAVYYCARERTYYDILTGYRHYYGMDVWGQGTTVTVSS
VL: B5 VL with K16Q, I47V, Y49D, P97W
B7: FM 7B (antibody, V domains shown)
VH: EVQLVQSGAEVKKPGASVKVSCKASGYTFTSYAMHWVRQAPGQRLEWMGWINTGNGNTKYSQKFQGRVTITRDTSASTAYMELSSLRSEDTAVYYCARDPTYCSSTSCYPFSWFDPWGQGTLVTVSS
VL: NFMLTQPPSVSVAPGQTARITCGGNNIGSKSVHWYQQKPGQAPVLVVYDDSDRPSGIPERFSGSNSGNTATLTISRVEAGDEADYYCQVWDSTGDHSWVFGGGTKLTVL
B8: FI 3A (antibody, V domains shown)
VH: EVQLLESGGGLIQPGGSLRLSCAASGFTVSSNYMSWVRQAPGKGLEWVSVIYSGGSTYYADSVKGRFTISRDNSKNTLYLQMNSLRAEDTAVYYCARDHVRPGMNIWGQGTMVTVSS
VL: not shown
B9: FJ 10B (antibody, V domains shown)
VH: QVQLVQSGAEVKKPGESLRISCKGSGYSFTSYWISWVRQMPGKGLEWMGRIDPSDSYTNYSPSFQGHVTISADKSISTAYLQWSSLKASDTAMYYCARLDPRYGPDYYGMDVWGQGTTVTVSS
VL: AIRMTQSPSSLSASVGDRVTITCRASQSISSYLNWYQQKPGKAPKLLIHAASSLQSGVPSRFSGSGSGTDFTLTMSSLQPEDFATYYCQQSYSTPLTFGGGTKVEIR
B10: FI-1C (antibody, V domains shown)
VH: EVQLVESGGGLVKPGGSLRLSCAASGFTFSDYYMSWIRQAPGKGLEWVSYISSSGSTIYYADSVKGRFTISRDNAKNSLYLQMNSLRAEDTAVYYCARRSNRFLIAFDIWGQGTMVTVSS
VL: QSALTQPASVSGSPGQTITISCTGTSSDVGGYNYVSWYQQHPGKAPKLMIYEVSNRPSGVSNRFSGSKSGNTASLTISGLQAEDEADYYCSSYTSSSTLVVFGGGTKLTVP
B11: FI 1C (antibody, V domains shown)
VH: B10 VH
VL: B10 VL
B12: FN 2C (antibody, V domains shown)
VH: EVQLLESGGGVVQPGRSLRLSCAASGFNFNNYGMHWVRQAPGKGLEWVATISYEGSKKFYVDSVKGRFTISKDNSKNTLYLQMNSLRVDDTAFYYCAKRREIFWLGEPPLSDAFDFWGQGTMVTVSS
VL: QSVLTQPPSVSGAPGQRVTISCTGSGSNIGAGYDVHWYQFLPGTAPQLLIYGNNNRPSGVPDRFSGSKSGTSASLAITGLQAEDEADYYCQSYDSSLSGSVFGGGTKLTVL
B13: FD 7C (antibody, V domains shown)
VH: QLQLQESGPGLVKPSETLSLTCTVSGGSISSYYWSWIRQPPGKGLEWIGYIYYSGSTNYNPSLKSRVTISVDTSKNQFSLKLSSVTAADTAVYYCARDYRFGELFGRFAWFDPWGQGTLVTVSS
VL: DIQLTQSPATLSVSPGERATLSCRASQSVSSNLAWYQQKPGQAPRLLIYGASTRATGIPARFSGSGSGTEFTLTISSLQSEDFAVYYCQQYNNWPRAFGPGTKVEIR
B14: FJ 1C (antibody, V domains shown)
VH: QVQLQESGPGLVKPSETLSLTCTVSGYSISSGYYWGWIRQPPGKGLEWIGSIYHSGSTYYNPSLKSRVTISVDTSKNQFSLKLSSVTAADTAVYYCARDKALLWFGELFTNLFDYWGQGTLVTVSS
VL: QSALTQPASVSGSPGQSITISCTGTSSDVGGYNYVSWYQQHPGKAPKLMIYEVSNRPSGVSNRFSGSKSGNTASLTISGLQAEDEANYYCSSYTSSSTLVFGGGTKLTVL
B15: FD 11A (antibody, V domains shown)
VH: EVQLVESGGGVVQPGRSLRLSCAASGFTFSSYGMHWVRQAPGKGLEWVAVIWYDGSNKYYADSVKGRFTISRDNSKNTLYLQMNSLRAEDTAVYYCAKGPDILTGYYNYYYYGMDVWGQGTMVTVSS
VL: QSVLTQPPSVSGAPGQRVTISCTGSSSNIGAGYDVHWYQQLPGTAPKLLIYGNSNRPSGVPDRFSGSKSGTSASLAITGLQAEDEADYYCQSYDSSLSGFYVVFGGGTKLTVL
B16: FN 12A (antibody, V domains shown)
VH: QVQLVQSGAEVKKPGSSVKVSCKASGGTFSSYAISWVRQAPGQGLEWMGRIIPILGIANYAQKFQGRVTITADKSTSTAYMELSSLRSEDTAVYYCARSGCSSTSCPSNLYYYYYGMDVWGQGTTVTVSS
VL: QSVLTQPPSVSAAPGQKVTISCSGSSSNIGNNYVSWYQQLPGTAPKLLIYDNNKRPSGIPDRFSGSKSGTSATLGITGLQTGDEADYYCGTWDSSLSALVFGGGTKLTVL
B17: FB 1E (antibody, V domains shown)
VH: EVQLVESGAEVKKPGESLKISCQGSGYRFNSYWIAWVRQMPGKGLEWMGSIFPTDSDIRYNPSFQGQVTISADKSISIAYLQWSSLKASDTAIYYCARHWASMVRGVIRASHYYGMDVWGQGTTVTVSS
VL: QSVLTQPPSASGSPGQSVTISCSGASSDIGDYNYVSWYQQLPGKAPKLLIYEVTKRPSGVPDRFSGSKSGNTASLTVSGLQADDEADYYCSSYAFGGSDIRVFGGGTKLAVL
B18: FB 9D (antibody, V domains shown)
VH: B17 VH with E1Q, I58V, I78F
VL: B17 VL with S2P, D31K, I100T, A110T
B19: FD 11C (antibody, V domains shown)
VH: EVQLLESGPGLVKPSETLSLTCTVSGGSISSSSYYWGWIRQPPGKGLEWIGSIYYSGSTYYNPSLKSRVTISVDTSKNQFSLKLSSVTAADTAVYYCAREYYYGSETKKYYYYYGMDVWGQGTTVTVSS
VL: not shown
B20: FI 4A (antibody, V domains shown)
VH: EVQLVESGGGLVKPGGSLRLSCAASGFTFSRFSMNWVRQAPGKGLEWVSSISSSGSYIYFADSVKGRFTISRDNAKNSLYLQMNSLRAEDTAIYYCATYLFGDSHTYWGQGTLVTVSS
VL: QSVLTQPHSVSESPGKTVTISCTGSSGSIASNYVQWYQQRPGSAPTTVIYEDNQRPSGVPDRFSGSIDSSSNSASLTISGLKTEDEADYYCQSYDSSNLHWVFGGGTKLTVL
B21: FD 5D (antibody, V domains shown)
VH: EVQLVESGGGLVQPGGSLRLSCAASGFTFSSYSMNWVRQAPGKGLEWVSYISSSSSTIYYADPVKGRFTISRDNAKNSLYLQMNSLRAEDTAVYYCASPGGITAAGTSVLFGYYGMDVWGQGTMVTVSS
VL: not shown
B22: FD 10A (antibody, V domains shown)
VH: EVQLVESGGGLVQPGGSLRLSCAASGFTFSSYWMHWVRQAPGKGLVWVSRINSDGSSTSYADSVKGRFTISRDNAKNTLYLQMNSLRAEDTAVYYCANMAFDIWGQGTMVTVSS
VL: not shown
B23: FD 1E (antibody, V domains shown)
VH: EVQLLESGGGLVKPGGSLRLSCAASGFTFSSYSMNWVRQAPGKGLEWVSSISSSSSYIYYADSVKGRFTISRDNAKNSLYLQMNSLRAEDTAVYYCASLAAAGPETYYYYGMDVWGQGTMVTVSS
VL: not shown
B24: FD 11E (antibody, V domains shown)
VH: B23 VH with L5V
VL: not shown

Key:
[1] = target: SARS-CoV-2 spike extracellular domain (SARS-CoV-2, UniProt P0DTC2 14-1213); test: ELISA
[2] = target: T1, SARS-CoV-2 spike receptor binding domain (RBD) (SARS-CoV-2, UniProt P0DTC2 319-541); test: flow
[3] = target: T1, SARS-CoV-2 spike receptor binding …; test: flow; remark: listed apart in the source
RBD-VLP = RBD-VLP (SARS-CoV-2, UniProt P0DTC2 340-538)

Binder	Kd [1]	also measured
B1	10.4 nM	
B2	3.54 nM	
B3	1.08 nM	Kd [2]: 11.4 nM
B4	64 nM	
B5	2.54 nM	
B6	63.9 nM	
B7	0.51 nM	Kd [3]: 0.64 nM
B8	6.61 nM	Kd [2]: 3.83 nM
B9	7.57 nM	Kd [2]: 3.73 nM
B10		IC50 (RBD-VLP): 23 nM
B11	1.18 nM	Kd [3]: 12.2 nM
B12	0.3 nM	
B13	0.18 nM	
B14	0.57 nM	
B15	0.4 nM	Kd [3]: 0.75 nM
B16	0.38 nM	Kd [3]: 1.12 nM
B17	0.41 nM	
B18	0.29 nM	
B19	0.98 nM	
B20	0.41 nM	Kd [3]: 7.9 nM
B21	0.58 nM	Kd [2]: 0.93 nM
B22	0.42 nM	
B23	20.5 nM	
B24	19.5 nM	
